Source: the supplement of paper PMC11780869

Tested on: Bacillus subtilis
Experiment: cleaved RNA product abundance (RNA/gDNA barcode ratio) relative to median wild-type variant (ratio to wild type); higher = more accumulation of the downstream cleavage product
Summary of the method: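 Sequencing of barcodes from gel-selected, reverse-transcribed cleaved RNA and from genomic DNA, with UMI collapsing, yielded a per-construct RNA:gDNA ratio. Scaled to the median construct with the unmutated site, this ratio is the cleaved product abundance. The barcoded reporters (truncated aprE or tetM mRNAs with mutagenized RNase Y cleavage-site windows) were integrated into the B. subtilis chromosome, and cultures grew in LB at 37°C from OD600 0.0003 to 0.3.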

[1] = experiment (reporter, strain, medium): exp 4a: truncated aprE reporter, strain BJT201 with 2% xylose (RNase J1 expressed), cleavage site: cggR-gapA (positions -7 to +36 mutated)
[2] = experiment (reporter, strain, medium): exp 8a: truncated aprE reporter, strain BJT201 with 2% xylose (RNase J1 expressed), cleavage site: glnRA (positions -5 to +31 mutated)
[3] = experiment (reporter, strain, medium): exp 2b: truncated aprE reporter, strain BJT200, cleavage site: cggR-gapA (positions -7 to +36 mutated)
[4] = experiment (reporter, strain, medium): exp 6: tetM reporter, strain 168, cleavage site: cggR-gapA (positions -7 to +36 mutated)

| Sequence | cleaved RNA product abundance [1] | cleaved RNA product abundance [3] | also measured |
| --- | --- | --- | --- |
| ACAGACGAAGGAGCCGCAAAGAAGTTATTAAGTGATGAATAATCCCTCCATATAAATATCTCTCACTTATTTAAA | 0.104 |  |  |
| CGACATGTCCCGCTTCTTTCATTAATCCGTTAGCAAGTGTTTTACTATATACATTTACCTTTTAAGAGGAGGAAT |  |  | cleaved RNA product abundance [2]: 0.824 |
| ACAGACGAAGGAGCCGCAAACAAGTTATTAAGGGATGAATAATCCGTCAATATAAATATCTCTCACTTATTTAAA | 0.187 |  |  |
| ACAGACGAAGGAGCCGCAAACAAGTTATTAAGGGATGAATAAACCCTCAATATAAATATCTCTCACTTATTTAAA | 0.38 | 0.29 |  |
| CGACATGTCCCGCTTCTTTCATTAACCCGTTAGCAACTGTTTTGCTATATACATTTACTTTTTAAGAGGAGGAAT |  |  | cleaved RNA product abundance [2]: 1.04 |
| CGACATGTCCCGCTTCTTTCATTAATCCCTTAGCAACTGTTTTGCTATATACATTTAACTTTTAAGAGGAGGAAT |  |  | cleaved RNA product abundance [2]: 0.237 |
| CGACATGTCCCGCTTCTTTCATTAATCCGTCAGAAACTGTTTTGCTATATACATTTACCTTTTAAGAGGAGGAAT |  |  | cleaved RNA product abundance [2]: 0.185 |
| CGACATGTCCCGCTTCTTTCATTAATCAGTTAGCAACTGTTTTGTTATATACATTTACCTTTTAAGAGGAGGAAT |  |  | cleaved RNA product abundance [2]: 0.523 |
| ACAGACGAAGGAGCCGCAAAGAAGTTATTAAGGGATGAGTAATCCCTCAATATAAATATCTCTCACTTATTTAAA | 0.596 | 0.484 | cleaved RNA product abundance [4]: 0.74 |
| ACAGACGAAGGAGCCGCAAAGAAGTTATTAAGGGAAGAATAATCCCTCGATATAAATATCTCTCACTTATTTAAA | 0.521 |  |  |
| ACAGACGAAGGAGCCGCAAAGTAGTTATTAAGGGATGAATAATCCCTGAATATAAATATCTCTCACTTATTTAAA | 0.524 | 0.409 |  |
| CGACATGTCCCGCTTCTTTCATTAATCCCTTAGCAACTGTTTTGCTATATACACTTAACTTTTAAGAGGAGGAAT |  |  | cleaved RNA product abundance [2]: 0.255 |
| ACAGACGAAGGAGCCGCAACGAAGTTATTAAGAGATGAATAATCCCTCAATATAAATATCTCTCACTTATTTAAA | 0.137 |  |  |
| CGACATGTCCCGCTTCTTTCATTATTCCGTTAGCAACTGTTTTGCTGTATACATTTACCTTTTAAGAGGAGGAAT |  |  | cleaved RNA product abundance [2]: 0.298 |
| ACAGACGAAGGAGCCGCAAAGAAGTTATTAAGGGATGAAAAATCCCTCAATATAAATATCTCTCACTTATTTAAA | 0.781 | 0.78 | cleaved RNA product abundance [4]: 0.985 |
| ACAGACGAAGGAGCCGCAAAGAAGTTATTAAAGGATGAATATTCCCTCAATATAAATATCTCTCACTTATTTAAA | 0.183 |  |  |
| ACAGACGAAGGAGCCGCAAAGAAGTTATTAAGGGATGAATAATCCCTCTATATAATTATCTCTCACTTATTTAAA | 0.309 | 0.29 |  |
| ACAGACGAAGGAGCCGCAAAGAAGTTATTAAGGTATGAATAATCCCTCAATAGAAATATCTCTCACTTATTTAAA | 0.0725 |  |  |
| CGACATGTCCCGCTTCTTTCATTAATCCGTTAGTAACTGTTTTGCTATATACATTTACTTTTTAAGAGGAGGAAT |  |  | cleaved RNA product abundance [2]: 0.36 |
| ACAGACGAAGGAGCCGCAAAGAAATTATTAAGGGATGAATAAACCCTCAATATAAATATCTCTCACTTATTTAAA | 0.49 | 0.405 |  |

| Sequence | cleaved RNA product abundance [1] | cleaved RNA product abundance [3] | also measured |
| --- | --- | --- | --- |
| ACAGACGAAGGAGCCGCAAAAAAGTTATTAAGGGATGAATAAACCCTCAATATAAATATCTCTCACTTATTTAAA | 0.631 | 0.468 |  |
| ACAGACGAAGGAGCCGCAAAGAACTTATTAAGGGATGAATAATCCGTCAATATAAATATCTCTCACTTATTTAAA | 0.155 |  |  |
| ACAGACGAAGGAGCCGCAAAGAATTTATTAAGGGATGAATAATCCCTCATTATAAATATCTCTCACTTATTTAAA | 0.377 | 0.278 |  |
| ACAGACGAAGGAGCCGCGAAGAAGTTATTAAGGGATCAATAATCCCTCAATATAAATATCTCTCACTTATTTAAA | 0.762 |  |  |
| ACAGACGAAGGAGCCGCAAAGAAGTTATTAAGTGAAGAATAATCCCTCAATATAAATATCTCTCACTTATTTAAA | 0.0841 |  |  |
| ACAGACGAAGGAGCCGCAAAGAAGTTATTAACGGATGAATAATCTCTCAATATAAATATCTCTCACTTATTTAAA | 0.183 | 0.0813 |  |
| ACAGACGAAGGAGCCGCAAAGAAGTTTTTAAGGCATGAATAATCCCTCAATATAAATATCTCTCACTTATTTAAA | 0.119 |  |  |
| ACAGACGAAGGAGCCGCAAAGAAGTTATTAATGGATGAATAATCCCTAAATATAAATATCTCTCACTTATTTAAA | 0.196 | 0.163 |  |
| CGACATGTCCCGCTTCTTTCATTAATCTGTTAGCAATTGTTTTGCTATATACATTTACCTTTTAAGAGGAGGAAT |  |  | cleaved RNA product abundance [2]: 1.59 |
| ACAGACGAAGGAGCCGCAAAGAAGTTATTAAGTGATGAATAATCCCACAATATAAATATCTCTCACTTATTTAAA | 0.0805 | 0.0986 |  |
| ACAGACGAAGGAGCCGCAAAGAAGTTATTAAGGGATAAATAATCCCTCAATATAAATTTCTCTCACTTATTTAAA | 0.368 |  |  |
| ACAGACGAAGGAGCCGCAAAGAAGTTTTTAGGGGATGAATAATCCCTCAATATAAATATCTCTCACTTATTTAAA | 0.507 |  |  |
| ACAGACGAAGGAGCCGCAAAGAAGTTATTAAGGGATGAATAACCCCTAAATATAAATATCTCTCACTTATTTAAA | 0.542 |  |  |
| ACAGACGAAGGAGCCGCAAAGAAGTTATCAAGGGATGAATATTCCCTCAATATAAATATCTCTCACTTATTTAAA | 0.27 |  |  |
| ACAGACGAAGGAGCCGCAAAGAAGTTATTAAGGGAAGAATGATCCCTCAATATAAATATCTCTCACTTATTTAAA | 0.925 |  |  |
| ACAGACGAAGGAGCCGCAAAGAAGTTATTAAGGGATGACTAATCCCTCAATATAATTATCTCTCACTTATTTAAA | 0.282 |  |  |
| ACAGACGAAGGAGCCGCAAAGATGTTATTAAGGGATGAATAATCACTCAATATAAATATCTCTCACTTATTTAAA | 0.181 |  |  |
| CGACATGTCCCGCTTCTTTCATTAATTCGTTGGCAACTGTTTTGCTATATACATTTACCTTTTAAGAGGAGGAAT |  |  | cleaved RNA product abundance [2]: 0.687 |
| ACAGACGAAGGAGCCGCAAAGAAGTTATTAAGCGATGAATAATCCTTCAATATAAATATCTCTCACTTATTTAAA | 0.119 | 0.0918 |  |
| ACAGACGAAGGAGCCGCAAAGAAGTTATTAAGCGATGAATAATCCCTCACTATAAATATCTCTCACTTATTTAAA | 0.0749 | 0.0669 |  |

| Sequence | cleaved RNA product abundance [1] | cleaved RNA product abundance [3] | also measured |
| --- | --- | --- | --- |
| ACAGACGAAGGAGCCGCATAGAAGTTACTAAGGGATGAATAATCCCTCAATATAAATATCTCTCACTTATTTAAA | 0.221 | 0.24 |  |
| CGACATGTCCCGCTTCTTTCATTAATCCGTTACTAACTGTTTTGCTATATACATTTACCTTTTAAGAGGAGGAAT |  |  | cleaved RNA product abundance [2]: 0.155 |
| ACAGACGAAGGAGCCGCAAAGAAGTTATTAAGGGATGCATAATCACTCAATATAAATATCTCTCACTTATTTAAA | 0.109 | 0.0901 |  |
| CGACATGTCCCGCTTCTTTCATTACTCCGTTAGCAACTGTTTTGCTATTTACATTTACCTTTTAAGAGGAGGAAT |  |  | cleaved RNA product abundance [2]: 0.151 |
| ACAGACGAAGGAGCCGCAAAGAAGTTATTAAGGCATGAATAATACCTCAATATAAATATCTCTCACTTATTTAAA | 0.153 | 0.0988 |  |
| ACAGACGAAGGAGCCGCAAAGAATTTATTAAGGGATGAATAATCCCTAAATATAAATATCTCTCACTTATTTAAA | 0.591 | 0.496 |  |
| ACAGACGAAGGAGCCGCAAAGAATTTATAAAGGGATGAATAATCCCTCAATATAAATATCTCTCACTTATTTAAA | 0.481 | 0.355 | cleaved RNA product abundance [4]: 0.219 |
| ACAGACGAAGGAGCCGCAAAGAACTTATTAAGTGATGAATAATCCCTCAATATAAATATCTCTCACTTATTTAAA | 0.0735 |  |  |
| ACAGACGAAGGAGCCGCAAAGAAGGTATTAAGGGATGAATAATCCCCCAATATAAATATCTCTCACTTATTTAAA | 0.378 |  |  |
| CGACATGTCCCGCTTCTTTCATTAATCCGTTAGCAACAGTTTTGCTATATACATTTACCTTTTAAGAGGAGGAAT |  |  | cleaved RNA product abundance [2]: 0.814 |
| CGACATGTCCCGCTTCTTTCATTAATCCATTAGCAACTATTTTGCTATATACATTTACCTTTTAAGAGGAGGAAT |  |  | cleaved RNA product abundance [2]: 0.423 |
| ACAGACGAAGGAGCCGCAAAGAAGTTATTAATGGATGAATAATCCCTCAATATAACTATCTCTCACTTATTTAAA | 0.072 |  |  |
| ACAGACGAAGGAGCCGCAAATAAGTTATTAAGGGATGAATAATCCCTCAACATAAATATCTCTCACTTATTTAAA | 0.401 |  |  |
| ACAGACGAAGGAGCCGCAAATAAGTTATTAAGGGATGAATAATGCCTCAATATAAATATCTCTCACTTATTTAAA | 0.145 |  |  |
| CGACATGTCCCGCTTCTTTCATTATTCCGTTAGCAACTTTTTTGCTATATACATTTACCTTTTAAGAGGAGGAAT |  |  | cleaved RNA product abundance [2]: 2.24 |
| CGACATGTCCCGCTTCTTTCATTAATCCGTTAGCAACTGTATTGATATATACATTTACCTTTTAAGAGGAGGAAT |  |  | cleaved RNA product abundance [2]: 0.658 |
| ACAGACGAAGGAGCCGCAAAGAAGTAATTAAGAGATGAATAATCCCTCAATATAAATATCTCTCACTTATTTAAA | 0.141 | 0.0957 |  |
| ACAGACGAAGGAGCCGCAAAGAAGTTATTTAGGGATGAATAATCTCTCAATATAAATATCTCTCACTTATTTAAA | 0.646 |  |  |
| ACAGACGAAGGAGCCGCAAAGAAGTTCATAAGGGATGAATAATCCCTCAATATAAATATCTCTCACTTATTTAAA |  | 0.162 |  |
